Data published in the RNAGym collection of RNA variant scans (doi:10.1073/pnas.2313332121).
Fewer inactive variants are shown than the library holds.

B1: TPR 5TU (parent)
chain: GGAUCUUCUCGAUCUAACAAAAAAGACAAAUCUGCCACAAAGCUUGAGAGCAUCUUCGGAUGCAGAGGCGGCAGCCUUCGGUGGCGCGAUAGCGCCAACGUUCUCAACUAUGACACGCAAAACGCGUGCUCCGUUGAAUGGAGUUUAUCAUG

Variants of: B1
Assay: polymerase ribozyme fitness, log enrichment relative to wild type (log ratio); higher = more active; in vitro selection for triplet polymerase activity
Summary of the method: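 Fitness is a logarithmic measure of how a genotype enriched relative to the wild type, with replicate averages weighted by inverse variance. The logarithm uses base 2, and enrichment came from Illumina sequencing of input and output libraries. Those libraries were PCR-built, transcribed mutants of each subunit of a heterodimeric triplet polymerase ribozyme, passed through one triplicate in vitro selection round that included frozen incubation at −7 °C, gel excision of extended constructs and streptavidin-bead capture. Genotypes were kept only if they had ≥10 input reads and ≥1 read per output.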

Variant	polymerase ribozyme fitness (log ratio)
A17C A52G G81A G83A A98U	-0.507
A17C A19G C51U G59U C75A A91U C116G A121C	≤ -4.2
A16U U61A G74A C96G	≤ -4.2
U15A A29C C35A G59A C76U G143C	≤ -4.2
A16C A21U A39C U44A U45A A49G G84A G126U	≤ -4.2
A16G A23U A29G A47C G50A C87G A106U U135C A147U	≤ -4.2
A17C	0.315
A17G	0.0905
U15C G74C G94C	-4.1
A16U C87U C116U	-2.25
A16G A98U	-1.65
A17C C57U C93A U101G U144A	-2.86
A16G C27G C54G G83A G86U A97U C105U U146A	≤ -4.2
U15C C35U U56A A89C	0.662
A17G A37U U82C C96A	-2.2
A17C U55G C57A G59C C85A A115G A119U	-2.46
A16G A28C C36A U44A G48C A49C C76G U77C A91U C103G	≤ -4.2
A16G A97G U144G	-0.0952
A17C C32A U53A G67A G74C U101A	≤ -4.2
U15C A21U	1.65
A16U A20U G58C G86A	-3.79
A17C G25C A41U C51A G84C G94U A110G U144C U146G	≤ -4.2
U15G A16C A21U A26C C103U	-3.98
A16C C72U U82A C85U A91U	≤ -4.2

Variant	polymerase ribozyme fitness (log ratio)
U15C A28G U146C	≤ -4.2
A16C C57A G94A C116U G124A A142U	-3.92
U15C C87U A142U	-0.702
A16C A89G	-2.25
A16G U31C C51U U53G C125A G140C	≤ -4.2
C14U U31C C76U G84U A142G G143U U146G	≤ -4.2
U15G C129A	-2.55
U15A A47C C54G A115G U127C U146A	-1.14
A16U A20C G83C C96A A107G	≤ -4.2
C14U G143A	-1.26
U15C U56G A113U	-0.657
A16U A22U C38U C85U	-2.73
A16U A28U C54U G117C	≤ -4.2
A16C A66U A122C U139A A142U	≤ -4.2
A16C C54G U77G C85U U135C	≤ -4.2
U15C A22C C51U G81U C85U G94A A122G	-1.17
A16C A41C C57G G59C U135A	-3.85
A16U A41U G59A C116G C129U A150G	≤ -4.2
A16U G94A	-2.47
U15G G59A G83U C118G	-1.13
U15G C38U C87U U104A	-1.04
A16U A26C G84A	-3.52
A16G A26U C35A C51G U61A C87G A120U C129G	≤ -4.2
A17C A40U U55A A60U A66C C85G C116G G141C A147U	≤ -4.2

Variant	polymerase ribozyme fitness (log ratio)
A17C U44G U61G	≤ -4.2
U15G U44G A73C G74U G80C C93U G141C	≤ -4.2
A17G A29U G42A C87U G100U A110C A115C A120G U134A	≤ -4.2
A17C A60U G81U G83U G86U C93A	-0.433
A16U A37C C63U C95U A119U A122U	-3.13
U15G G50A U53A A73U C87A A113C G140U	≤ -4.2
U15A U55A G59A	0.845
C14U G140A	≤ -4.2
A16U U56A A60U C93U G141U	-3.72
C14U U56A G74A C85A C87A C125U G143C A150U G152U	≤ -4.2
A17C A26U C75A G84A G141U	≤ -4.2
A16U A47C U53A C85G C131A U134A G140U	≤ -4.2
A16G G34U A52U A60G G88U A91U G140C	-4.14
U15A G58A G86A U144G	0.552
A17G A21C C116U	0.03
A17G C51U A106G A120C A122U	-1.36
U15C C54A C87U G94A A98U C125A	-3.98
U15G C36G U111G G124A G141C A150U	≤ -4.2
U15A G83U	-0.19
A16U G59C A150U	-0.494
A17C U45A C54G G74A A91C U139G	≤ -4.2
A16U C38U C51U A73G G92U G94A A98C U151A	-3.96
A16U A20U U146A	-3.95
A16C C96A U109C U148A	≤ -4.2

Variant	polymerase ribozyme fitness (log ratio)
A17G A52C	-0.98
A17C G34U C51U C57A G86A	-4.06
U15A C27G A30U G68A A89U C95G A98U	≤ -4.2
A16C A19U	-1.03
A17G A28U C32U A39U C57A C95A A110G U144C A147G A150C	≤ -4.2
A17G A20U A37G U53G A98U A106U G126C G136C G143U	≤ -4.2
A17G A40C G48C	-1.5
U15C A24C C93U G128U G140A U144C	≤ -4.2
A17C A40G	-1.63
A16G C76U C79A G83U G152U	≤ -4.2
C14U G94A G136U	-3.85
C14U G84A	-1.56
U15G G152U	-2.98
A16G A28U C87A A107C	≤ -4.2
A16U C54U	-1.53
U15G C35U A41C A115G U145G	-4.04
A16U A41G	-1.88
U15C C27U U53A A122G	-1.39
U15G U53A	-0.774
U15C A20U C54U G86U	-1.77
A16U C27A G42A U44G U45A A49C A113G U144A	≤ -4.2
U15A C75G C108U	-4.16
U15G A21C A26U C38G G92A A113C	≤ -4.2
A16G G46U U55A C85A C105A	-4.14

Variant	polymerase ribozyme fitness (log ratio)
A17G A52U A64U G65A G86C A107C G128A	≤ -4.2
A17G C108U	-3.09
A16C C38U G80U C96G A142C U148G	≤ -4.2
A16U G25C C72G C76G C96U A107U A115G C129U	≤ -4.2
A16U C38A C85A	-3.78
A17G A19U	0.00969
A16G A40G G86C	≤ -4.2
C14U U53G	-3.01
A16G G48A C57A C76U A89C C95A C116G C131A G136C	≤ -4.2
A17G C27U A49U C79A G83U C87U A120U	≤ -4.2
A16U A19C C57U G71C U134G G141U	≤ -4.2
A16G A19G A23U A26C U44A U53A C87G C103A	-4.11
C14U G74C A107G	≤ -4.2
A16C C27A A30U C38G G48U G86U A110U C116G G141A	-4.02
U15C C93U	-0.331
U15C A23G U82A C93G G126A	-4.14
C14U G88A	-4.2
U15A A17U C57G G88U A91C U111C C129A U134G U148C	≤ -4.2
A17G A26C C32U G59A C75U	≤ -4.2
A17C C27U G71A C93G A113C U134G U151G	≤ -4.2
A17C U55A G68A A73G C85U U127A G141U	≤ -4.2
A17G C38U C57A C63A A115G U144A	-1.28
A17C G74U C85A A91G G92C C93G C118A A120C	≤ -4.2
A16U C43U C87U U104G A107G C118A	≤ -4.2

Variant	polymerase ribozyme fitness (log ratio)
U15G U53A A91G	-2.83
A16U A37U A52C G112U U139A	≤ -4.2
A17G A37U C87U C99A C123U	-3.98
A17G C18U A40C C99G	-3.19
A16U G84A	-2.41
A16G A30U U44A G81A C95U C125G	≤ -4.2
A17G C32A A49C G83U A107G G143U	≤ -4.2
A17C A29U C72U G81C G140U	≤ -4.2
A17G C38U G81A C96A	0.341
C14U U15G A41C A49C C54G C75G C96U C123A A137U G141A G143C	≤ -4.2
A16C U31A U104G A142C	-2.77
A17G C69G C85G A107C A122G	≤ -4.2
A17C C36U A52C G80U G84C A107U U144C	≤ -4.2
A16C G50A C85U	-3.26
A17C A24U C114A	-3.86
U15C U56A C79A G80U C96U C103A A107C U146A	≤ -4.2
A16G G80A	-0.775
A17G A21G U90C A147C A150U	≤ -4.2
A17C G34A C96G A121G A122C U134C	-1.47
A16C C85G	-4.13
A16C C85U	-1.75
A16C A24U G46C C105G C108G	≤ -4.2
U15C U145G	0.506
U15G A22G U56G C96U A121U	-0.722

Variant	polymerase ribozyme fitness (log ratio)
U15C A41G U61G C99U	-2.24
A17G C85G	-1.33
A17C U31A G92U A98U G141A	0.253
A16G A19U C93A	-3.75
A17C C38U A41C A60C	-1.39
A17C C93U	-1.02
A16C A19U C85U G117U A150U	0.0374
A17G C87A C103U	≤ -4.2
C14U U55A C85G C93U C96A U102A A115G	≤ -4.2
A16G C43U C51U G80C G117A A142C	≤ -4.2
A16U C54A U101G A119U C149U	-4.08
A17G C93A A106G	-1.94
A17C C95U	0.45
A16G C18U U31G C35A C43A C95G C103U	≤ -4.2
A17G A19C G80C G92A C116U G136C G140A	≤ -4.2
A16G G86U	-2.72
A16U A49G	-1.93
A16U C93U	-2.81
A16G A29G A47U C57U A73C C93G A98G A115G	≤ -4.2
U15G C79G	-3.38
A16C C32G U56G C63G	≤ -4.2
U15C A24G A39G G83A C99G	≤ -4.2
A17C C76U C93G U102G C105A	≤ -4.2
